# Source: article PMC13507320, “Synergistic effect of PIP2 and PIP3 on membrane-induced phase separation of integrin complexes” (Biophysical Journal, 2025)
# T1: Atto643-labeled his6-β1 integrin cytoplasmic tail peptide (UniProt P05556 752-798, Atto643 label (position not given))
# T1 construct: integrin β1 cytoplasmic tail; Tethered by its his6 tag to DGS-NTA-Ni lipids of the supported lipid bilayer; also called β1 tails; his6-tagged integrin β1 tails; source: synthetic peptide (synthesized and purified by the MPIB Core Facility)
# T1 peptide (looked up): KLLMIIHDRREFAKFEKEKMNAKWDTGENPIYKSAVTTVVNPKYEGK
# B1: Kindlin-2 (natural protein, UniProt Q96AC1 1-680, looked up)
# chain: MALDGIRMPDGCYADGTWELSVHVTDLNRDVTLRVTGEVHIGGVMLKLVEKLDVKKDWSDHALWWEKKRTWLLKTHWTLDKYGIQADAKLQFTPQHKLLRLQLPNMKYVKVKVNFSDRVFKAVSDICKTFNIRHPEELSLLKKPRDPTKKKKKKLDDQSEDEALELEGPLITPGSGSIYSSPGLYSKTMTPTYDAHDGSPLSPTSAWFGDSALSEGNPGILAVSQPITSPEILAKMFKPQALLDKAKINQGWLDSSRSLMEQDVKENEALLLRFKYYSFFDLNPKYDAIRINQLYEQAKWAILLEEIECTEEEMMMFAALQYHINKLSIMTSENHLNNSDKEVDEVDAALSDLEITLEGGKTSTILGDITSIPELADYIKVFKPKKLTLKGYKQYWCTFKDTSISCYKSKEESSGTPAHQMNLRGCEVTPDVNISGQKFNIKLLIPVAEGMNEIWLRCDNEKQYAHWMAACRLASKGKTMADSSYNLEVQNILSFLKMQHLNPDPQLIPEQITTDITPECLVSPRYLKKYKNKQITARILEAHQNVAQMSLIEAKMRFIQAWQSLPEFGITHFIARFQGGKKEELIGIAYNRLIRMDASTGDAIKTWRFSNMKQWNVNWEIKMVTVEFADEVRLSFICTEVDCKVVHEFIGGYIFLSTRAKDQNESLDEEMFYKLTSGWV
# notes: Kindlin-2; the species may be mouse there; source: E. coli (DE3) Rosetta 2, purified (Ni-NTA IMAC, SenP2 digest, size-exclusion chromatography); not shown: His-SUMO, N-terminal, cleaved
# Legend:
# [1] = molecular target: T1, Atto643-labeled his6-β1 integrin …; experiment: FRAP of the tethered partner on supported lipid bilayers (slowdown of diffusion); his6-β1 tails tethered to DGS-NTA-Ni on 5% PIP2 supported lipid bilayer; 1 μM kindlin or 1 μM talin, 30-min incubation; HEPES buffer pH 7.4, 150 mM KCl, 2.5 μM ZnCl2; t1/2_fast against β1 tails alone; settings: both partners purified
# [2] = molecular target: T1, Atto643-labeled his6-β1 integrin …; experiment: FRAP of the tethered partner on supported lipid bilayers (slowdown of diffusion); his6-β1 tails tethered to DGS-NTA-Ni on 5% PIP3 supported lipid bilayer; 1 μM kindlin or 1 μM talin, 30-min incubation; HEPES buffer pH 7.4, 150 mM KCl, 2.5 μM ZnCl2; t1/2_fast against β1 tails alone; settings: both partners purified
binder,measurement,setting,value
B1,fold slowdown of β1 tail diffusion against β1 tails alone,[1],2.6 times
same,fold slowdown of β1 tail diffusion against β1 tails alone,[2],3.3 times
